Numbering of substitutions follows the chain as printed.
B1: g28v2-D38-11_CLK19 (antibody, V domains shown)
VH: QVQLVQSGAEVKKPGASVKVSCKASGYTFTGYYMHWVRQAPGQGLEWMGWINPNSGGTNYAQIFQDRVTMTRDTSISTAYLELSRLRSDDTAVYYCTRVDGVWSFDIWGQGTMVTVSS
VL: NIQMTQSPSSLSASVGDRVTITCQASQDISNYLNWYQQKPGKAPKILIYDASNLETGVPSRFSGSGSGTDFTFTISSLQPEDIATYYCQQYDTFGPGTKVDIK
B2: g28v2-D46-3_CLK19 (antibody, V domains shown)
VH: QVQLVQSGAEVKKPGAAVKVSCKASGYTFTDYYMHWVRQAPGQGLEWMGWINPRYGGTNYAQKFQDRVTMTRDTSISTTYMELRRLKSDETAVYYCTTVMADYRWPFDYWGQGTLVTVSS
VL: B1 VL with N1D, T22S, S30N, Y32C, I46L, A51T, E55G, A84G
B3: g28v2-D46-6_CLK09 (antibody, V domains shown)
VH: QVQLVQSGAEVKKPGASVKVSCKASGYTFTDYYMHWVRQAPGQGPEWMGWLNPNNGGRNFARKFQDRVTVTRDTSLSTAYMELSRLRSDDTAVYYCARVGEKWTFDIWGQGTMVTVSS
VL: B1 VL with N1D, D17G, I46L, A51V, D92E, T93F, P96G, D101E
B4: g28v2-D58-3_CLK09 (antibody, V domains shown)
VH: QVQLVQSGADVRKPGASVKVSCKASGYTFTDYYVHWVRQAPGQGLEWMGWINPNRGGTNYPQKFQGRVTMTRDTSISTAYMELSRLRSDDTAVYYCALWFGEKKTFDIWGQGTMVTVSS
VL: B1 VL with N1D, D28G, I29V, I46L, A51V, D92E, T93F, P96G, D101E
B5: g28v2-D46-7_CLK09 (antibody, V domains shown)
VH: QVQLVQSGAEVKKPGASVKVSCKASGYTFTGYHMHWVRQAPGQGPEWMGWINPNGGGTNYAQKFQGRVTMTRDTSISTAYMELSRLRSDDTAVFYCAPVLADYGWRFDYWGQGTLVTVSS
VL: B1 VL with N1D, D17G, N31S, I46L, T56A, T72A, D92E, T93F, P96G, D101E
B6: g28v2-D38-9_CLK19 (antibody, V domains shown)
VH: B4 VH with D10E, R12K, D31V, V34M, R55S
VL: B1 VL with N1D, S30G, I46L, A51T, S65G, T69P, S77T, A84G
B7: g28v2-D46-2_CLK19 (antibody, V domains shown)
VH: QVQLLQSGDEVKKPGASVRVSCKASGYTFTAYFLHWVRQAPGQGLEWMGWINPHSGGTNYAQRFQDRVTMTRDTSISTAYMELSRLRSDDTAVYYCTPVLADYRWRFAYWGQGTLVTVSS
VL: B1 VL with N1D, S30N, I46L, A51T, S52T, T56I, I83F, D92A, T93A
B8: g28v2-D46-13_CLK19 (antibody, V domains shown)
VH: QVQLVQSGAEVKKPGASVKVSCKASGYTFTGNYMHWVRQAPGQGLEWMGWINPNSGGTNYAQKFQGRVTMTRDTSISTAHMELRSLRSDDTAVYYCARVEGSWFGKKWTFDIWGQGTMVTVSS
VL: B1 VL with N1A, S30T, I46L, T56A, S77G, Y87S, D92E
B9: g28v2-D46-12_CLK19 (antibody, V domains shown)
VH: QVQLVQSGAEVKKPGASVKVSCKASGYTFTGYFMHWVRQAPGQGLEWMGWINPNTGGVNYSQKFQGRVTMTRDTSITTAYMELSSLRSDDTAVYFCVTALAGHGWRFDYWGQGTLVTVSS
VL: B1 VL with N1D, I29T, I46L, S77G, D92E
B10: g28v2-D58-5_CLK19 (antibody, V domains shown)
VH: QVQLVQSGAEVKKPGASVKVSCKASGYTFTGYFIHWVRQAPGQGLEWMGWINPNRGGTNYAQKFQGRVTMTRDTSTSTAYMDLSRLRSDDTAMYYCTVVLAAYRWPFAYWGQGTLVTVSS
VL: B1 VL with N1D, Q3R, M4V, S26N, S30R, I46L, A51V, N53K, P80S, D92E
B11: g28v2-D38-5_CLK19 (antibody, V domains shown)
VH: QVQLVQSGAEVKKPGASVKVSCKASGYTFIDYYIHWVRQAPGQGLEWMGWINPYHGGTNCAQKFQDRVTMTRDTSISTAYLEMSRLRSDDTAVFFCVIALAGHGWRFDYWGQGTQVTVSS
VL: B1 VL with N1D, S30N, I46L, A51T, D92A, T93A
B12: g28v2-D38-3_CLK19 (antibody, V domains shown)
VH: QVQLVQSGAEVKKPGASVKVSCKASGYTFTGYFMHWVRQAPGQGLEWMGWINPHFGATNYAQKFQGRVTMTRDTSISTAYMELSRLRSDDWAVYYCTPVLATFRWRFDYWGQGTLVTVSS
VL: B1 VL with N1D, T22S, S30N, I46L, A51T
B13: g28v2-D38-8_CLK19 (antibody, V domains shown)
VH: QVQLVQSGAEVKKPGASVKVSCKASGYSFSGYYMHWVRQAPGQGLEWMGWINPNHGGTNYAQKFQDRVTMTRDTSISTAYMELSRLRSDDTAVYFCARVDESWFGKKWTFDIWGQGTMVTVSS
VL: B1 VL with N1D, S30G, I46L, A51T, T72S, S76A, T93I
B14: g28v2-D46-11_CLK19 (antibody, V domains shown)
VH: QVQLVQSGAEVKKPGASVRVSCKASGYTFTDYYMHWVRQAPGQGLEWMGWINPHSGGVNYAHKFQGRVTMTRDTSISTAYMELSRLRSDDTAVYYCTTALAGHGWRFDYWGQGTLVTVSS
VL: B1 VL with N1D, I29T, Q38L, I46L, S77G, D92E
B15: g28v2-D46-9_CLK19 (antibody, V domains shown)
VH: B14 VH with D31G, H54N, S55N
VL: B1 VL with N1D, S14Y, K39I, I46L, T56A, G66R, T69A, D92A
B16: g28v2-D46-10_CLK19 (antibody, V domains shown)
VH: B14 VH with K13R, D31G, H54N, S55R, E82D, Y94F
VL: B1 VL with I29T, I46L, S77G, D92E
B17: g28v2-D38-6_CLK19 (antibody, V domains shown)
VH: QVQLVQSGAEVREPGASVKVSCKASGYTFTGYYMHWVRQAPGQGLEWMGWINPNRGGTNLARKLQDRVTMTRDTSLSTAYMELRRLRTDDTAVYYCARVGEKWTFDIWGQGTMVTVSS
VL: B1 VL with N1D, I2L, S30N, K42R, I46L, A51T, D92A, T93A
B18: g28v2-D38-4_CLK09 (antibody, V domains shown)
VH: B12 VH with G31D, M34L, H54T, F55G, A57G, T58V, K63Q, M70L, S84T, W91T
VL: B1 VL with N1D, I46L, A51V, E55G, D92E, T93F, P96G, D101E
B19: g28v2-D58-1_CLK09 (antibody, V domains shown)
VH: QIQLVQSGAEVKKPGASVKVSCKASGYTFTDYFIHWVRQAPGQDLVWMGWINPIYGGTNYARSFQGRVTMTRDTSISTAFLELNRLRSDDTAVYYCATDLADNRWRFDYWGQGTLVTVSS
VL: B1 VL with N1D, S30T, N31S, Y32F, I46L, D92E, T93F, P96G, D101E
B20: g28v2-D38-7_CLK19 (antibody, V domains shown)
VH: B3 VH with D31G, R58T, F64Y, V70M, T78S, I107F
VL: B1 VL with N1D, S30N, I46L, A51T, T56A, Y87F, D92A, T93A
B21: g28v2-D46-1_CLK19 (antibody, V domains shown)
VH: QVQLVQSGAEVKKPGAAVKVSCKASGYTFTGYYIHWVRQAPGQGLEWMGWVNPKTGATNYAQKFQGRVTMTRDTSISTTYMELRRLRSDETAVYFCATVMADFRWPFDYWGQGTLVTVSS
VL: B1 VL with N1D, S30N, I46L, A51T, E55G, T56I, A84G
B22: g28v2-D58-2_CLK09 (antibody, V domains shown)
VH: B19 VH with I34L, V46E, I54T, Y55F, S63N, F80Y, D102S
VL: B1 VL with N1D, I2L, I46L, D50G, T85I, D92E, T93F, P96G, D101E
B23: g28v2-D46-5_CLK19 (antibody, V domains shown)
VH: B7 VH with F33Y, I51L, N52Y, H54Q, D66G, Y80F, T97A
VL: B1 VL with N1D, S30N, I46L, A51T, S52T, T56I, D92A, T93A
B24: g28v2-D46-4_CLK19 (antibody, V domains shown)
VH: B2 VH with M34I, R54T
VL: B1 VL with N1D, T22S, S30N, I46L, A51T, E55G, A84G
B25: g28v2-D58-11_CLK09 (antibody, V domains shown)
VH: B12 VH with G31D, F33H, M34I, H54R, F55G, A57G, E82D, W91T
VL: B1 VL with N1D, S30R, I46L, L54F, D92E, T93F, P96G, D101E
B26: g28v2-D38-2_CLK19 (antibody, V domains shown)
VH: QVQLVQSGAEVKKPGASVKVSCKASGYTFTDYYLHWVRQAPGQGLEWMGWINPIFGAPNYARKFQGRVTMTRDTSISTAYMELSRLNSDDTAVYYCTHVLATYRWRFDHWGQGTLVTVSS
VL: B1 VL with N1D, I21F, S30G, Y32F, I46L, A51T, E55G, T56A, D92A
B27: g28v2-D58-10_CLK19 (antibody, V domains shown)
VH: B12 VH with G31D, F33H, H54R, F55G, A57G, E82D, W91T
VL: not shown
B28: g28v2-D46-14_CLK19 (antibody, V domains shown)
VH: B4 VH with Q1R, D10E, R12K, D31G, V34I, Y80S
VL: DIQLTQSPSSLSASVGGRVTITCQASQDIHNYLNWYQQKPGKAPKILIHDVSNLETGVPSRFSGSRSGTDFTFTISSLLPEDIGTYYCQQYEFFGPGTKVDIK
B29: g28v2-D58-4_CLK09 (antibody, V domains shown)
VH: B4 VH with D10E, R12K, T30I, D31G, V34I
VL: DIQMTQSPSSLSASVGDRVTITCQASQGVSNYLNWFQQKPGKALKLLIYDVSNLETGVPSRFSGSGSGTDFTFTISSLQPEDIATYYCQQYEFFGGGTKVEIK
B30: g28v2-D46-8_CLK09 (antibody, V domains shown)
VH: B14 VH with H54N, S55N, V58I
VL: B29 VL with D17G, V29I, N31T, F36Y, L44P, I83F

Biological target: eOD-GT8 (monomeric ligand) (Human immunodeficiency virus 1, …)

Binder | Kd [nM]
B1 | 0.0422
B2 | 0.338
B3 | 0.211
B4 | 1.38
B5 | 57.3
B6 | 0.149
B7 | 0.344
B8 | 0.193
B9 | 0.183
B10 | 39
B11 | 4.43
B12 | 105
B13 | 50.8
B14 | 0.0455
B15 | 0.0475
B16 | 1.35
B17 | 5.38
B18 | 0.177
B19 | 20.7
B20 | 0.0876
B21 | 10.8
B22 | 1.55
B23 | 19.7
B24 | 0.106
B25 | 3.65
B26 | 3710
B27 | 3.69
B28 | 12
B29 | 3.48
B30 | 0.303
